Assay results taken from the supplement of paper PMC9428881.
± gives the standard error.

Experiment: background-corrected fluorescence of 3'-dye-labeled ssDNA relative to brightest sequence (3'-GCGCG) (fraction); higher = brighter dye fluorescence (less quenching)
Outline: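 Arrays of single-stranded DNA, with a 3' Cy3 or Cy5 dye beside each of 1024 permuted pentamers, were built on glass slides through light-directed phosphoramidite synthesis. They were washed for 2 h at r.t. in acetonitrile and scanned at 532 or 635 nm, once before and once after overnight ethylenediamine/ethanol deprotection. Fluorescence is reported after subtracting unlabeled-oligo background and normalizing to the brightest sequence. Averages cover 10 features per array and at least 3 syntheses.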

Row | Sequence | background-corrected fluorescence (dye: Cy3 (3' terminal)) | background-corrected fluorescence (dye: Cy5 (3' terminal))
1 | TTTTTTGATGCTGCTCATGCTTTTTTTTTTTTTTTCAAGA [AGAAC] | 0.683 ± 0.036 | 0.543 ± 0.026
2 | TTTTTTGATGCGCAGCATGATTTTTTTTTTTTTTTCATTC [CTTAC] | 0.398 ± 0.017 | 0.297 ± 0.021
3 | TTTTTTGCTCAGCAGCATGATTTTTTTTTTTTTTTAGTTC [CTTGA] | 0.433 ± 0.023 | 0.335 ± 0.025
4 | TTTTTTGCTGATGATCATGCTTTTTTTTTTTTTTTACCGA [AGCCA] | 0.601 ± 0.025 | 0.515 ± 0.031
5 | TTTTTTCATGATGATGCGCATTTTTTTTTTTTTTTGCCAT [TACCG] | 0.516 ± 0.048 | 0.404 ± 0.029
6 | TTTTTGCAGCATGCTGCTCATTTTTTTTTTTTTTTTTAAG [GAATT] | 0.536 ± 0.025 | 0.411 ± 0.026
7 | TTTTTTGATGATCATCATCATTTTTTTTTTTTTTTCCGGG [GGGCC] | 0.731 ± 0.012 | 0.655 ± 0.076
8 | TTTTTTGAGCATGCTCATCATTTTTTTTTTTTTTTCTAGG [GGATC] | 0.647 ± 0.019 | 0.507 ± 0.036
9 | TTTTTTCATGATCATGAGCATTTTTTTTTTTTTTTGCGCT [TCGCG] | 0.623 ± 0.022 | 0.485 ± 0.025
10 | TTTTTGCATCAGCATCATGCTTTTTTTTTTTTTTTTGTGA [AGTGT] | 0.68 ± 0.026 | 0.564 ± 0.039
11 | TTTTTGCAGCAGCAGCATGCTTTTTTTTTTTTTTTTTTTA [ATTTT] | 0.501 ± 0.033 | 0.411 ± 0.028
12 | TTTTTTCATGCTGAGCATCATTTTTTTTTTTTTTTGACTG [GTCAG] | 0.511 ± 0.03 | 0.39 ± 0.032
13 | TTTTTTGCTGAGCATGCTGCTTTTTTTTTTTTTTTACTAA [AATCA] | 0.522 ± 0.0087 | 0.413 ± 0.021
14 | TTTTTTCATCATCATGATGATTTTTTTTTTTTTTTGGGCC [CCGGG] | 0.517 ± 0.031 | 0.367 ± 0.032
15 | TTTTTGCATGCGCATGATCATTTTTTTTTTTTTTTTATCG [GCTAT] | 0.515 ± 0.016 | 0.402 ± 0.031
16 | TTTTTTGCTCATGCGCATGCTTTTTTTTTTTTTTTAGATA [ATAGA] | 0.582 ± 0.025 | 0.434 ± 0.019
17 | TTTTTTGAGCAGCATGATGCTTTTTTTTTTTTTTTCTTCA [ACTTC] | 0.455 ± 0.027 | 0.382 ± 0.041

Row | Sequence | background-corrected fluorescence (dye: Cy3 (3' terminal)) | background-corrected fluorescence (dye: Cy5 (3' terminal))
18 | TTTTTTGCTCATCAGCATGATTTTTTTTTTTTTTTAGGTC [CTGGA] | 0.459 ± 0.014 | 0.376 ± 0.019
19 | TTTTTTCATGCGCAGCAGCATTTTTTTTTTTTTTTGATTT [TTTAG] | 0.531 ± 0.03 | 0.383 ± 0.029
20 | TTTTTTCATCATGCGCATGCTTTTTTTTTTTTTTTGGATA [ATAGG] | 0.582 ± 0.026 | 0.479 ± 0.045
21 | TTTTTTCAGCAGCATGATGCTTTTTTTTTTTTTTTGTTCA [ACTTG] | 0.492 ± 0.025 | 0.389 ± 0.044
22 | TTTTTTGAGCAGCAGCAGCATTTTTTTTTTTTTTTCTTTT | 0.494 ± 0.021 | 0.357 ± 0.035
23 | TTTTTTGATCATGCTCAGCATTTTTTTTTTTTTTTCGAGT [TGAGC] | 0.684 ± 0.026 | 0.477 ± 0.058
24 | TTTTTTCAGCATCATCATGCTTTTTTTTTTTTTTTGTGGA [AGGTG] | 0.702 ± 0.022 | 0.606 ± 0.037
25 | TTTTTGCATGAGCATCATGATTTTTTTTTTTTTTTTCTGC [CGTCT] | 0.491 ± 0.029 | 0.368 ± 0.024
26 | TTTTTTCAGCATCATGATGCTTTTTTTTTTTTTTTGTGCA [ACGTG] | 0.589 ± 0.02 | 0.483 ± 0.028
27 | TTTTTTGATGCTCATGCTGCTTTTTTTTTTTTTTTCAGAA [AAGAC] | 0.609 ± 0.022 | 0.471 ± 0.027
28 | TTTTTTCAGCAGCAGCATGATTTTTTTTTTTTTTTGTTTC [CTTTG] | 0.409 ± 0.024 | 0.306 ± 0.036
29 | TTTTTTCATCAGCATGATGCTTTTTTTTTTTTTTTGGTCA [ACTGG] | 0.506 ± 0.027 | 0.414 ± 0.02
30 | TTTTTTGATCATCAGCAGCATTTTTTTTTTTTTTTCGGTT [TTGGC] | 0.545 ± 0.0074 | 0.427 ± 0.024
31 | TTTTTGCATCATGCTGATCATTTTTTTTTTTTTTTTGACG [GCAGT] | 0.536 ± 0.016 | 0.433 ± 0.063
32 | TTTTTTGATGATCATGCTGCTTTTTTTTTTTTTTTCCGAA [AAGCC] | 0.647 ± 0.047 | 0.49 ± 0.031
33 | TTTTTTGATCATGAGCATGCTTTTTTTTTTTTTTTCGCTA [ATCGC] | 0.549 ± 0.026 | 0.399 ± 0.027
34 | TTTTTTGCTGATCAGCATCATTTTTTTTTTTTTTTACGTG [GTGCA] | 0.589 ± 0.022 | 0.472 ± 0.028
